Reference: publication PMC7006624

Tests used:
Assay in all cases: fluorescence polarization
[1] = biological target: CLIP-G (CLIP-tag-GCN4 bZIP fusion) (UniProt P03069); conditions: no added NaCl; amino-C6-T (second T of TTTT loop); 40 mM Tris-HCl, 20 mM acetic acid, 12.5 mM MgCl2, 1 mM DTT, 1 uM ZnCl2, 100 nM calf thymus DNA, 0.02% Tween 20, pH 8.0, 25 C, with or without 200 mM NaCl
[2] = biological target: ZF-CLIP (zif268-CLIP-tag fusion) (UniProt P08046); conditions: amino-C6-T (second T of TTTT loop), 40 mM Tris-HCl, 20 mM acetic acid, 12.5 mM MgCl2, 1 mM DTT, 1 uM ZnCl2, 100 nM calf thymus DNA, 0.02% Tween 20, pH 8.0, 25 C, with or without 200 mM NaCl
[3] = system: AZ-CLIP (AZP4-CLIP-tag fusion) (designed); conditions: no added NaCl; amino-C6-T (second T of TTTT loop); 40 mM Tris-HCl, 20 mM acetic acid, 12.5 mM MgCl2, 1 mM DTT, 1 uM ZnCl2, 100 nM calf thymus DNA, 0.02% Tween 20, pH 8.0, 25 C, with or without 200 mM NaCl

Chain of ZF-CLIP (zif268-CLIP-tag fusion) (P08046 other isoform, or with tags, fused parts or gaps): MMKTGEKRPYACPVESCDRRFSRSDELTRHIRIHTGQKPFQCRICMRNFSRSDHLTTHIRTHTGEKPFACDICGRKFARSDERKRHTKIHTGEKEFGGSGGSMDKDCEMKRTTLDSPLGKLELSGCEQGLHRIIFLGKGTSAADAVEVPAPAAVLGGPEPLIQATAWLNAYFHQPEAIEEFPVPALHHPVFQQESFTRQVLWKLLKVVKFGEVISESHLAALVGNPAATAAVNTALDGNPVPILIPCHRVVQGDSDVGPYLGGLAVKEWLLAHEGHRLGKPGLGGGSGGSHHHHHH

| Sequence | Kd [1] | Kd ([2]; no added NaCl) | Kd [3] | Kd [2] |
| --- | --- | --- | --- | --- |
| CGTTCATGACTCATGAGTTTTCTCATGAGTCATGAAC [A488-ODN-AP] | 5.1 nM | > 1000 nM |  |  |
| CGCGATGCCACGTAGCGTTTTCGCTACGTGGCATCGC [A488-ODN-AZ] | > 1000 nM | > 1000 nM | 74 nM |  |
| CGCGACGCCCACGCGCGTTTTCGCGCGTGGGCGTCGC [A488-ODN-ZF] | > 1000 nM | 8.1 nM | > 1000 nM | 56 nM |
